Results: the DeepSol protein solubility set

Test: soluble on expression in E. coli; label from the status in PepcDB or PDB records

For “MRRSAAPSQLQGNSFKKPKFIPPGRSNPGLNEEITKLNPDIKLFEGVAINNTFLPSQNDLRICSLNLPSEESTREINNRDNCSGKYCFEAPTLATLDPPHTVHSAPKEVAVSKEQEEKSDSLVKYFSVVWCKPSKKKHKKWEGDAVLIVKGKSFILKNLEGKDIGRGIGYKFKELEKIEEGQTLMICGKEIEVMGVISPDDFSSGRCFQLGGGSTAISHSSQVARKCFSNPFKSVCKPSSKENRQNDFQNCKPRHDPYTPNSLVMPRPDKNHQWVFNKNCFPLVDVVIDPYLVYHLRPHQKEGIIFLYECVMGMRMNGRCGAILADEMGLGKTLQCISLIWTLQCQGPYGGKPVIKKTLIVTPGSLVNNWKKEFQKWLGSERIKIFTVDQDHKVEEFIKSIFYSVLIISYEMLLRSLDQIKNIKFDLLICDEGHRLKNSAIKTTTALISLSCEKRIILTGTPIQNDLQEFFALIDFVNPGILGSLSSYRKIYEEPIILSREPSASEEEKELGERRAAELTCLTGLFILRRTQEIINKYLPPKIENVVFCRPGALQIELYRKLLNSQVVRFCLQGLLENSPHLICIGALKKLCNHPCLLFNSIKEKECSSTCDKNEEKSLYKGLLSVFPADYNPLLFTEKESGKLQVLSKLLAVIHELRPTEKVVLVSNYTQTLNILQEVCKRHGYAYTRLDGQTPISQRQQIVDGFNSQHSSFFIFLLSSKAGGVGLNLIGGSHLILYDIDWNPATDIQAMSRVWRDGQKYPVHIYRLLTTGTIEEKIYQRQISKQGLCGAVVDLTKTSEHIQFSVEELKNLFTLHESSDCVTHDLLDCECTGEEVHTGDSLEKFIVSRDCQLGPHHQKSNSLKPLSMSQLKQWKHFSGDHLNLTDPFLERITENVSFIFQNITTQATGT”, which “soluble on expression in E. coli” value is on record?
Its value is “soluble”.

Which “soluble on expression in E. coli” value does the source give for “MRSRERNRRPTLDELDRILTYFEQMRDRRRQEIDMLRVIVFALFSTRRQEEITRIRWDLLNESEQSALVTDMKNPGQKYGNDVWCHMPDEAWRVLQSMPKVADEVFPYNSRSVSASFTRACNFLEIEDLHFHDLRHDGVSRLFEMGWDIPKVASVSGHRDWNSMRRYTHLRGNGDPYAGWQWIERVISGPVIEAQVRVKRRAAGRAPLEHHHHHH” here?
The value was “not soluble”.

Which “soluble on expression in E. coli” value does the source give for “MRTALLQNLFSLFPFDLHGDCDVPPARDGIRVSCIINFYGRLNVLAGILWSLAQQDFPRSAFEVILVEDRGGSDEGRALAEEFSSRLPIVYAPLDKQYGLMGYSRNFGLERSRGEFILFLDDDTIILQDDFLKTMVAYFDAQPGVSAIMPHGEASFAFVDDRYDFHDPFFMTSRCTAYRRTVLASLGGFMSSFIGQEDVEFVIRFHAAGNRCAAVPQLAYRHPPLYVTNLGKPMAVGSSFYGIRKRYPLVTWLLAVVNCSRHLPLVLAPSRKYREMGRFGLGFLWGVLTAPFRSGSLNYRLEHHHHHH” here?
Its value is “not soluble”.

Which “soluble on expression in E. coli” value does the source give for “MRTILIDWFSDAVREYIFRNEAVHLAVSLVDRALPMFNINKMRFQLVGITSMRIAVKYEEIFPPILSNTRHSFDGAILYWKVRLHRRNAHTILDRIMLCTENELYKKDAECCQTPRAVADRFSFSTLPPI” here?
Its value is “not soluble”.

For “MRTLKELERELQPRQHLWYFEYYTGNNVGLFMKMNRVIYSGQSDIQRIDIFENPDLGVVFALDGITMTTEKDEFMYHEMLAHVPMFLHPNPKKVLIIGGGDGGTLREVLKHDSVEKAILCEVDGLVIEAARKYLKQTSCGFDDPRAEIVIANGAEYVRKFKNEFDVIIIDSTDPTAGQGGHLFTEEFYQACYDALKEDGVFSAETEDPFYDIGWFKLAYRRISKVFPITRVYLGFMTTYPSGMWSYTFASKGIDPIKDFDPEKVRKFNKELKYYNEEVHVASFALPNFVKKELGLM”, which “soluble on expression in E. coli” value is on record?
The value was “soluble”.

Which “soluble on expression in E. coli” value does the source give for “MRTLTIEPLTKDAFAPFGDVIETDGSDHFMINNGSTMRFHRLAEVDTAQPDDKAIISIFRAESLPMPLTIGMLERHPQGSQAFIPLLGNPFLIVVAPVGDAPESALTRAFVSNGRQGVNYHRGVWHHPVLTIEKQDDFLVVDRSGSGNNCDEHYFEENQRLVLDPNPQEGLEHHHHHH” here?
Its value is “soluble”.

With “MRTMPDAPALHLTAIDSHAHVFSRGLNLASQRRYAPNYDAPLGDYLGQLRAHGFSHGVLVQPSFLGTDNRYLLSALQTVPGQLRGVVMLERDVEQATLAEMARLGVRGVRLNLMGQDMPDLTGAQWRPLLERIGEQGWHVELHRQVADIPVLVRALQPYGLDIVIDHFGRPDARRGLGQPGFAELLTLSGRGKVWVKVSGIYRLQGSPEENLAFARQALCALEAHYGAERLMWGSDWPHTQHESEVSFGSAVEQFEALGCSAQLRQALLLDTARALFGFELEHHHHHH” as the sequence, how does the “soluble on expression in E. coli” value read?
The value was “soluble”.

Which “soluble on expression in E. coli” value does the source give for “MRTNVPDQQSTVQKLLDENSRLIDIIQEYLNQSRADEAIKHQQLLHRNLLHLSNLADPFLLSQLKDDGTAAAALPDPNQQQPQPGASGPPAPHLQQQQPQHSPQQGHPHPQQGLPAAHHRQQMMPPQAAPSPGGPMQPPHGFAPPPMGGGVPPEMMNHQAYQAQMRQQQQQPNGQAPPPVYPPFGQPAPQMSGQRMPYPYPPQGMPGYPGGPPPPPHGYEGYPPPGAQPGYMR” here?
The value was “soluble”.

Which “soluble on expression in E. coli” value does the source give for “MRTQFINEQTMMIYFENEISESTFKKVQQTIQYIKSKNLSEITNMIPSYRAILIYFDNSGINGTELLENLELDENSNSRKQSHFKQRIIHIPVLYGGDFGPDLSEVANVNKLSQEEVIQIHTQQPYLIYMLGFMPGFPYLGGLDAKLHTPRRSEPRIKINAGSVGIANNQTGLYPMDSPGGWQIIGRTPIKVFDLNRTPMTLYEAGDYIQFYSINYQEFEKISNDINKGKFDIDKWVTYQDEYLEHHHHHH” here?
Its value is “not soluble”.

For “MRVAIPAEDDRGIKSNVSKHFGRSRYFVFVDIEGEDVKNVEVVEVPFEEHGPGDLPNFIKDHGAKIVLTYGIGRRAIEYFNSLGISVVTGVYGRISDVIKAFIGGKLKIDYDWKEKIEKEH”, which “soluble on expression in E. coli” value is on record?
Its value is “soluble”.

Which “soluble on expression in E. coli” value does the source give for “MRVLATAADLEKLINENKGRLIVVDFFAQWCGPCRNIAPKVEALAKEIPEVEFAKVDVDQNEEAAAKYSVTAMPTFVFIKDGKEVDRFSGANETKLRETITRHK” here?
Its value is “soluble”.

For “MRVYKPEDVPNVQLADSTRLVTDEAGLLSNAQEEVMNGRLRAIRSSHAVEFAVVTLPSIGDAPLEDFTLKLARQWGVGNEKNNNGLLLVLVLDQRRVRFETGYGLEGYLPDGLLSRIIHDRMIPHFRSGNYAEGLSEGVLAVQQVLDGSLEHHHHHH”, which “soluble on expression in E. coli” value is on record?
Its value is “soluble”.

For “MRYAIMVTGPAYGTQQASSALQFAHALLNEGHELASVFFYREGVYNANLLTSPASDEYDLVRVWQKLNTQHGVALNICVAAALRRGIIDETEAGRLELPSANLQPGFTLSGLGALAEASLTCDRVVQF”, which “soluble on expression in E. coli” value is on record?
The value was “soluble”.

With “MRYDVVVVGSGVAGPIVARNVAKAGFSVLLVDKKPAIGAPKQCAEGLTINAFKQFDIPYDKRFINREIYGAKIYSPSGYTAELRYKEVSGVILERKVFDKMLAYYAAKAGAEVLARTEVVDVIRREGKIVGVKAKHEGEPMEIEAKVIVAADGVESTIARKAGIDTYAPPHEFDSGYEYEMIIEGFDPDLIHLFFGNEVAPRGYVWVFPKDEDRANVGIGINSDNEKTAKYYLDKWLKENNIPRNKILEVNVGLIPVGGFVKELVKENVLVVGDAARQVNPIHGGGMAEAMKASTIASKWIIKALEEENLELLKNYKEEWWKTEGPRMEKLLRLRRAMEKLTDEDLDVFVQLVSGTDLEKIAGGNYIEVVKALMKHPKVLMSRRRLEILKALLLEHHHHHH” as the sequence, how does the “soluble on expression in E. coli” value read?
Its value is “soluble”.

Which “soluble on expression in E. coli” value does the source give for “MRYNQSDNKPFEEVLEASLSRRSILKGGLGISAMTAFGAFGLAGCNSSSSGTSASNGSGVSKAVLNFDSIPGSLTDAVSIPQGYTAQVLVPWGTPLNAQGSAWKNDGSNTSSDQLNALGMHHDGMHFFPLNDSTTDGLLCINHEYIDTSALHPNGPTVANGVRTIVDEVRKEINAHGVSVVRIQLEDNMWKLADTDPLNRRYTGATVMDLSGPVAHTALTVTRFSPDGSQARGTLNNCGNGYTPWGTYLTCEENWPGYFVNAGTRTEEQDRIGVDDKSTRYLWETLAGNSEERLDEFTRFNVAPTGTSSADDYRNEANGHGYIVEIDPYTQNSRAKKRTALGRFRHEGCAFGKLEAGKPVVFYSGHDSRFEYLYKFESAAAWDPADANPANRLATGDKYMDEGTLYVARFNEDSTGTWLPLTLDSVTTSGGTLADHFNSLAEIIINTAGAADLVGATPMDRPEWCSVDPFTGSVYLTLTNNTRRTDETNPANPRLNNKFGHVIRWDEGTSATDFTWDIFVFGSPANGDADTNRSGLNELNQFASPDGLAFDGRGILWIQTDNGADEVTSYTNDQMLAVVPSKLTNENGAQAVIGADNQAELKRFFVGPNGCEVTGFTISPDYKSLFVNIQHPGNWPYSDDAAQETPAGTTVRPRAATVVIRREDGGEIAVLEHHHHHH” here?
Its value is “soluble”.

With “MRYVIAVKSPIYGKQGAFLAYQFAESLIKKEHEISQIFFFQDGVSNGNALVYPANDEVNLQKHWQMFSITYNVPLHLCVAASQRRGVVDNLTTPTTAHYNLAEGFTIAGLGEFIAASLNADRVITL” as the sequence, how does the “soluble on expression in E. coli” value read?
Its value is “soluble”.

For “MSACAPVHRDPPAPASLRAMPGARWLSGVVLGGLSLGLMACGPKDIEGLRTADYLGGDQRSGVLTYRETPPMGGPYNPLWQTCAAYAQPVYNEYAVHSLARGAVWVTYRPGLDAAELDKLKALLAGQPAALLSPYPNLPAPVVMTAWNRQLSAQTADDPRLTRFLKEILPENSAPEKGSPCARGFGGTR”, which “soluble on expression in E. coli” value is on record?
The value was “soluble”.

For “MSAEQFVGRWKLVESENFEDYLKEVGVGLLLRKAACAAKPTLEIKVNGNKWHVNQLSTFKNTTLEFTLGVEFDETTPDGRQFKSTITIEDGKVVHVQKRIKDSDHDSVITRWFEGEKLITTLQSGSVISRRAYIRE”, which “soluble on expression in E. coli” value is on record?
The value was “not soluble”.

For “MSAEVLVYRGSLVENRHRVSLALWGPEGLVAYAGDPGRVAYLRSSAKPFQALALYLTGAVERFGLTEEEVALATASHDGTPRHVEVAARFLGKLGLGPEHLVCGVHPPFSREARAALEAQGLAPTPLHHNCSGKHAGMLAAALALGAPAEGYHLPDHPVQRLNLATLEALSGARPGLATDGCSVPTFALSLARAARAFFLLADPGRAPEAYRTPLLRVREAMRRHPDLVAGPGSVDTLLMERLPVVAKRGADGYYGLALLEGPRGPLGVALKVEDGATLAREVAVVALLRALGLDPGKTPWDRPPVRNHRGLEVGHLEARLGLVWV”, which “soluble on expression in E. coli” value is on record?
The value was “soluble”.

With “MSAHDRKEPAQRCPAALAAERLQIGLEHCGISADVHQGYGVSLVSVWTNLVVWTDGLAYRWWTGKISAKTGRRLYRVYAVDNPITVAHCVAQRYEELRKASHHSRGVVERTS” as the sequence, how does the “soluble on expression in E. coli” value read?
The value was “not soluble”.

Which “soluble on expression in E. coli” value does the source give for “MSAKIYRPAKTAMQSGTAKTNVWVLEFDAEVPRKIDPIMGYTSSSDMKQQVKLTFETQEQAEAYAQRKGIEYRVILPKEATRKVVSYTDNFRFNRTQPWTHLEHHHHHH” here?
Its value is “soluble”.

Which “soluble on expression in E. coli” value does the source give for “MSALRHIAVIDIGKTNAKVALVDLATSSEVALRRMANAPVRQAPYPHHDVESLWTFILDSLAGLNCEQRIDAISITTHGATGALVDASGELVLPVLDYEFDGPNGLAADYDAIRPPFAETGTPRLPLGLNLGAQFFWQQKRFPAAFAHATAILMYPQYWALRLTGVAANEVTSLGCHTDLWNPWTAGFSSLVDRLDWRGLMAPVRPARNRLGPILPALAARTGLDARTPVFCGLHDSNASLLPHLLSDAPPFSVVSTGTWVVSMAVGGREIALDAARDTLVNVNALGDPLPSARFMGGREFSVLTEGQPETWSEDDIGAVLARKTLLLPSTQQGSGPFPHQAATWLDAESINDGQRFAAVSFYLALMTATCLDLIGADGPTTVEGPFARNQLFVGMLAASTGRAVVASEATTGTSIGAALLASDQVMAYGKGERIEPPTDRAWADYANAWRVAVEARGLEHHHHHH” here?
The value was “not soluble”.
